Reference: paper PMC11863771 (Cell Communication and Signaling : CCS, 2025)
One block for each binder: values may come before it.

Columns and labels:
CXCR4-Rluc8 = biological target: T1, CXCR4-Rluc8 (human, UniProt P61073 1-352); assay: FRET or BRET; quantitative BRET saturation in HEK293A cells: fixed amount of Rluc8-tagged donor, increasing amounts of mCit-tagged acceptor, coelenterazine h 5 µM; no ligand, no further receptor coexpressed; conditions: partners not purified
T1 construct: C-X-C chemokine receptor type 4 (CXCR4), human cDNA from the Missouri S&T cDNA Resource Center; source: HEK293A, transiently transfected, in cells; not shown: Rluc8, C-terminal, kept

[1] = biological target: T2, CXCR4-Rluc8 (human), P61073; assay: FRET or BRET; quantitative BRET saturation in HEK293A cells, CXCR4-Rluc8 and CXCR4-mCit, with S1P1 coexpressed, with CXCL12 (10 nM); conditions: remark: other sources report otherwise
T2 chain: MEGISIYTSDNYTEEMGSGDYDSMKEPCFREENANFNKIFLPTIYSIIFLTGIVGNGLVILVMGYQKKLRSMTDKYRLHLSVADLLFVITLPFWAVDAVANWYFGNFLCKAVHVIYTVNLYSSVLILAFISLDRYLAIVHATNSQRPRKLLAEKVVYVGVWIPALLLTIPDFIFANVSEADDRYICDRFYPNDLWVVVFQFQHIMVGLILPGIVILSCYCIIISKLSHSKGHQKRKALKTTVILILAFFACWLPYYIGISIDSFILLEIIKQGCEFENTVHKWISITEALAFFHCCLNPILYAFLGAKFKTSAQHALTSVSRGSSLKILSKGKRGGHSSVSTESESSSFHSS

[2] = biological target: T2, CXCR4-Rluc8 (human), P61073; assay: FRET or BRET; quantitative BRET saturation in HEK293A cells, CXCR4-Rluc8 and CXCR4-mCit, without S1P1, with CXCL12 (10 nM); conditions: remark: other sources report otherwise
[3] = biological target: T2, CXCR4-Rluc8 (human), P61073; assay: FRET or BRET; quantitative BRET saturation in HEK293A cells: fixed amount of Rluc8-tagged donor, increasing amounts of mCit-tagged acceptor, coelenterazine h 5 µM; no ligand, no further receptor coexpressed; conditions: remark: other sources report otherwise
[4] = biological target: T2, CXCR4-Rluc8 (human), P61073; assay: as above; conditions: remark: other sources report otherwise
[5] = biological target: T2, CXCR4-Rluc8 (human), P61073; assay: FRET or BRET; quantitative BRET saturation in HEK293A cells, CXCR4-Rluc8 and CXCR4-mCit, with S1P1 coexpressed, vehicle; conditions: remark: other sources report otherwise

BRET50 (CXCR4-Rluc8): 12.7 ± 0.687
B1: mCit-tagged S1P3(TM4) (receptor, human)
chain: MATALPPRLQPVRGNETLREHYQYVGKLAGRLKEASEGSTLTTVLFLVICSFIVLENLMVLIAIWKNNKFHNRMYFFIGNLALCDLLAGIAYKVNILMSGKKTFSLSPTVWFLREGSMFVALGASTCSLLAIAIERHLTMIKMRPYDASNNFRLFLLISACWVISLILGGLPIMGWNCISALSSCSTILPLYSKKYIAFCISIFTAILVTIVILYARIYFLVKSSSRKVANHNNSERSMALLRTVVIVVSVFIACWSPLFILFLIDVACRVQACPILFKAQWFIVLAVLNSAMNPVIYTLASKEMRRAFFRLVCNCLVRGRGARASPIQPALDPSRSKSSSSNNSSHSPKVKEDLPHTAPSSCIMDKNAALQNGIFCN
notes: S1P3, human, the part before the printed TM4 stretch (NKRHRV...); TM4 of S1P1, human, put in place of TM4 of S1P3; S1P3, human, the part after the printed TM4 stretch (...NLPDCS); TM4 of S1P3 ([residues removed]) replaced with TM4 of S1P1; source: HEK293A, transiently transfected, in cells; not shown: mCitrine (mCit), C-terminal, kept

BRET50 (CXCR4-Rluc8): 6.97 ± 0.473
B2: mCit-tagged S1P3(TM3) (receptor, human)
chain: MATALPPRLQPVRGNETLREHYQYVGKLAGRLKEASEGSTLTTVLFLVICSFIVLENLMVLIAIWKNNKFHNRMYFFIGNLALCDLLAGIAYKVNILMSGKKTFKLTPAQWFLREGSMFVALSASVFSLLAIAIERYITMLKMKLHNGNKRHRVFLLIGMCWLIAFTLGALPILGWNCLHNLPDCSTILPLYSKKYIAFCISIFTAILVTIVILYARIYFLVKSSSRKVANHNNSERSMALLRTVVIVVSVFIACWSPLFILFLIDVACRVQACPILFKAQWFIVLAVLNSAMNPVIYTLASKEMRRAFFRLVCNCLVRGRGARASPIQPALDPSRSKSSSSNNSSHSPKVKEDLPHTAPSSCIMDKNAALQNGIFCN
notes: S1P3, human, the part before the printed TM3 stretch (SLSPTV...); TM3 of S1P1, human, put in place of TM3 of S1P3; S1P3, human, the part after the printed TM3 stretch (...RPYDA); TM3 of S1P3 ([residues removed]) replaced with TM3 of S1P1; source: HEK293A, transiently transfected, in cells; not shown: mCitrine (mCit), C-terminal, kept

Continued, binder first:

B3: CXCR4-mCit, P61073 1-352 (receptor)
chain: T2 chain
BRET50 [1]: 20.1 | BRET50 [2]: 9.53 | BRET50 [3]: 2.74 | BRET50 [4]: 15.6 | BRET50 [5]: 22.8

B4: mCit-tagged S1P1(TM4) (receptor, human)
chain: MGPTSVPLVKAHRSSVSDYVNYDIIVRHYNYTGKLNISADKENSIKLTSVVFILICCFIILENIFVLLTIWKTKKFHRPMYYFIGNLALSDLLAGVAYTANLLLSGATTYKLTPAQWFLREGSMFVALSASVFSLLAIAIERYITMLKMKLHNGNKRHRVFLLIGMCWLIAFTLGALPILGWNCLHNLPDCSTVLPLYHKHYILFCTTVFTLLLLSIVILYCRIYSLVRTRSRRLTFRKNISKASRSSEKSLALLKTVIIVLSVFIACWAPLFILLLLDVGCKVKTCDILFRAEYFLVLAVLNSGTNPIIYTLTNKEMRRAFIRIMSCCKCPSGDSAGKFKRPIIAGMEFSRSKSDNSSHPQKDEGDNPETIMSSGNVNSSS
notes: S1P1, human, the part before the printed TM4 stretch (SNNFRL...); TM4 of S1P3, human, put in place of TM4 of S1P1; S1P1, human, the part after the printed TM4 stretch (...ALSSCS); TM4 of S1P1 ([residues removed]) replaced with TM4 of S1P3; source: HEK293A, transiently transfected, in cells; not shown: mCitrine (mCit), C-terminal, kept
BRET50 (CXCR4-Rluc8): 7.19 ± 0.559

B5: mCit-tagged S1P1(TM3) (receptor, human)
chain: MGPTSVPLVKAHRSSVSDYVNYDIIVRHYNYTGKLNISADKENSIKLTSVVFILICCFIILENIFVLLTIWKTKKFHRPMYYFIGNLALSDLLAGVAYTANLLLSGATTYSLSPTVWFLREGSMFVALGASTCSLLAIAIERHLTMIKMRPYDASNNFRLFLLISACWVISLILGGLPIMGWNCISALSSCSTVLPLYHKHYILFCTTVFTLLLLSIVILYCRIYSLVRTRSRRLTFRKNISKASRSSEKSLALLKTVIIVLSVFIACWAPLFILLLLDVGCKVKTCDILFRAEYFLVLAVLNSGTNPIIYTLTNKEMRRAFIRIMSCCKCPSGDSAGKFKRPIIAGMEFSRSKSDNSSHPQKDEGDNPETIMSSGNVNSSS
notes: S1P1, human, the part before the printed TM3 stretch (KLTPAQ...); TM3 of S1P3, human, put in place of TM3 of S1P1; S1P1, human, the part after the printed TM3 stretch (...KLHNG); TM3 of S1P1 ([residues removed]) replaced with TM3 of S1P3; source: HEK293A, transiently transfected, in cells; not shown: mCitrine (mCit), C-terminal, kept
BRET50 (CXCR4-Rluc8): 7.24 ± 0.501
